Results: US20240262910A1 (Memorial Sloan Kettering, published 2024)
Substitutions are numbered along the chain they refer to.

T1: mouse CD33 extracellular domain with 6xHis-tag (mouse, UniProt Q63994 18-240)
T1 construct: range 18-240; also called moCD33-His; moCD33(ECD)-His
T1 sequence: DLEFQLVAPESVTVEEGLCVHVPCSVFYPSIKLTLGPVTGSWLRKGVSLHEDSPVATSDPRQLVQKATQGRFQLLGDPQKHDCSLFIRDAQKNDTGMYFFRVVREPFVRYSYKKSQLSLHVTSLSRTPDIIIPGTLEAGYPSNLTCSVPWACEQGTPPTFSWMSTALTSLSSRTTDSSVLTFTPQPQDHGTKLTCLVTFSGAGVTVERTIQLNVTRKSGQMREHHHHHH

B1: 1J19 (recombinant, human IgG1 constant region) (antibody, V domains shown)
VH: QVQLQQSGPGLVKPSQTLSLTCAISGDSVSSNSAAWNWIRQSPSRGLEWLGRTYFRSKWYNVYAVSVKSRITINPDTSKNQFSLQLNSVTPEDTAVYYCASEGGSYYDHWGQGTLVTVSS
VL: DIQMTQSPSSVSASVGDRVTITCRASQGISNWLTWYQQKPGKAPKLLIYAASSLQSGVPSRFSGSGSGTDFTLTISSLQPEDFATYYCQQADSFPFTFGPGTKVDIK
B2: 4-P3 (antibody, V domains shown)
VH: EVQLLESGGGLVQPGGSLRLSCAASGFTFSTYAMSWVRQAPGKGLEWVSAISGRGGSTYYTDSVKGRFTISRDNSKNTVSLQMNSLRAEDTAVYYCAGRGDYYYYYGMDVWGQGTTVTVSA
VL: DIVMTQSPLSSPVTLGQPASISCRSSQSLVYSDGNTYLSWLQQRPGQPPRLLIYKISNRFSGVPDRFSGSGAGTDFTLKISRVEAEDVGVYYCMQSTQFPHTFGQGTKLEIK
notes: AlivaMab mouse hybridoma antibody; also called 4-P3-A
B3: 1-A20 (antibody, V domains shown)
VH: QVQLQESGPGLVKPSETLSLTCTVSGDSISSYYWSWIRQPAGKGLEWIGRIYTSGNTNYNPSLKSRVTMSVDKSKNQFSLKLRSVTAADTAVYYCARDGDNRDSDAFDIWGQGTMVTVSS
VL: SPGTLSLSPGERATLSCRASQNISSSYLAWCQQKPGQAPRLFIYGTSRRATGIPDRFSGSGSGTDFTLTISRLEPEDFAVYYCQQYGSSPLTFGGGTKVEIK
notes: AlivaMab mouse hybridoma antibody; also called 1-A20-A
B4: 2-N3 (antibody, V domains shown)
VH: EVQLVQSGADVKKPGESLKISCKGSGFSFTSHWIAWVRQMPGKGLEWMGIIYPGDSDTRYSPSLQGRVTISADKSISTAYLQWSSLKASDTAMYFCARHETGNGYSYGMDVWGQGTTVTVSS
VL: DIVMTQSPLSLPVTPGEPASISCRSSQSLLHSNGYNYLDWYLQKPGQSPQLLFSLGSNRASGVPDRFSGSGSGTDFSLKISRVEAEDVGLYYCMQALQPPLTFGGGTKVEIK
notes: AlivaMab mouse hybridoma antibody; also called 2-N3-A
B5: 2-F18 (antibody, V domains shown)
VH: QIQLVESGGGVVQPGRSLRLSCAASGFTFSAYPMHWVRQAPGKGLEWVAIISYDGSNNYYADSVKGRFTISRDNSKNTMYLQINSLRAEDTGVYYCARGKVGTLDFWGQGTLVTVSS
VL: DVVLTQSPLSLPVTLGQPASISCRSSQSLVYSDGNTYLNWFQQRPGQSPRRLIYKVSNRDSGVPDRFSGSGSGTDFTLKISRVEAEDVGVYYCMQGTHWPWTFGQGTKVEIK
notes: AlivaMab mouse hybridoma antibody; also called 2-F18-A
B6: 1-P23 (antibody, V domains shown)
VH: QVQLVESGGGVVQPGRSLRLSCAASGFTFNSYGMHWVRQAPGKGLEWVAIISYDGSNKYYADSVKGRFTISRDNSKNTLYLQMNSLRAEDTAVYYCARDNYDSSGYNWYFDLWGRGTLVTVSS
VL: SSELTQDPAVSVALGQTVRITCQGDSLRSYYASWYQQKPGQAPVLVIYGKNNRPSGIPDRFSGSSSGNTASLTITGAQAEDEADYYCNSRDSSGNLWVFGGGTKLTVL
notes: AlivaMab mouse hybridoma antibody; also called 1-P23-A
B7: 1-P13 (antibody, V domains shown)
VH: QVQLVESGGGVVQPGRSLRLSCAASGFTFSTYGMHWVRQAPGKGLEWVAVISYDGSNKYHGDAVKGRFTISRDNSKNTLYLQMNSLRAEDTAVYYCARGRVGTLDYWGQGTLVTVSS
VL: DVVMTQSPLSLPVSLGQPASISCRSSRGLVYSDVNTNLNWFQQRPGQSPRRLIYKVSNRDSGVPDRFSGSGSGTDFTLKISRVEAEDVGVYYCMQGTHWPWTFGQGTKVEIK
notes: AlivaMab mouse hybridoma antibody; also called 1-P13-A
B8: 1-H19 (antibody, V domains shown)
VH: B3 VH with D27G, S31T, K73T, F78L, D103N
VL: QSVLTQPPSVSGAPGQRVTISCTGSSSNIGAGYDVHWYQQLPGTAPKLLIYGNSNRPSGVPDRFSGSKSGTSASLAITGLQAEDEADYYCQSYDRSLSGWVFGGGTKLTVL
notes: AlivaMab mouse hybridoma antibody; also called 1-H19-A
B9: 1-J19 (hybridoma antibody) (antibody, V domains shown)
VH: B1 VH
VL: B1 VL
notes: AlivaMab mouse hybridoma antibody; also called 1-J19-A
B10: H195 (lintuzumab) (antibody, V domains shown)
VH: QVQLVQSGAEVKKPGSSVKVSCKASGYTFTDYNMHWVRQAPGQGLEWIGYIYPYNGGTGYNQKFKSKATITADESTNTAYMELSSLRSEDTAVYYCARGRPAMDYWGQGTLVTVSS
VL: DIQMTQSPSSLSASVGDRVTITCRASESVDNYGISFMNWFQQKPGKAPKLLIYAASNQGSGVPSRFSGSGSGTDFTLTISSLQPDDFATYYCQQSKEVPWTFGQGTKVEIK

Columns and labels:
[1] = molecular target: T2, human CD33, full length, on cells (human, UniProt P20138 18-364); assay: flow cytometry, U937 cells
T2 construct: NIH-3T3 cells stably overexpressing full-length human CD33, or AML lines U937 and Set2 with endogenous CD33; the cell line is named under assay; also called 3T3-huCD33; 3T3-CD33
T2 sequence (P20138 18-364): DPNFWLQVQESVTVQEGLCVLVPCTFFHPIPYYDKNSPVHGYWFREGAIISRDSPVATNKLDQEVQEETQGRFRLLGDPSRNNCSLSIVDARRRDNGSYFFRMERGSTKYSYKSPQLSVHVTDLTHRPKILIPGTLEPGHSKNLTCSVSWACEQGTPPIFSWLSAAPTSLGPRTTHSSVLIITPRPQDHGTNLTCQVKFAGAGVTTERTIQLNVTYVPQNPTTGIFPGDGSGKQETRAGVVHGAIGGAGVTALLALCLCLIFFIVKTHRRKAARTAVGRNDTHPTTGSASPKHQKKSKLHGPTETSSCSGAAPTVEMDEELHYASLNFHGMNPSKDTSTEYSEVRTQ
Method: (§1) Binding to CD33 on Cells. To assess the binding of TDI-Y-006, TDI-Y-007 and 1J19 to cell surface-bound CD33, 3T3 cells overexpressing CD33, as well as the U937 AML cell line, which expresses endogenous CD33, were used. U937 CD33KO or NALM6 were included as negative controls. Briefly, NALM6, U937 CD33+ and KO cells were blocked with human IgG Fc for 20 minutes on ice. The recombinant antibodies were then serially diluted starting at 100 μg/mL concentration and added for 30 minutes on ice. AlexaFluor 647-conjugated goat anti-human F(ab′)2 was added to cells for 30 minutes on ice, washed and analyzed by flow cytometry, normalized to secondary only staining (MFI ratio). EC50 values were determined by non-linear regression.

[2] = molecular target: T2, human CD33, full length, on cells; assay: flow cytometry, 3T3-CD33 cells
Method: as §1

[3] = molecular target: T3, human CD33 extracellular domain with 6xHis-tag (human, UniProt P20138 18-259); assay: BLI (Octet Red96e), antibody on anti-huFc sensor, huCD33-His as analyte, 1:1 fit
T3 construct: Bought (R&D Systems, Acro Biosystems); also called huCD33-His; huCD33(ECD)-His
T3 sequence (P20138 other isoform, or with tags, fused parts or gaps): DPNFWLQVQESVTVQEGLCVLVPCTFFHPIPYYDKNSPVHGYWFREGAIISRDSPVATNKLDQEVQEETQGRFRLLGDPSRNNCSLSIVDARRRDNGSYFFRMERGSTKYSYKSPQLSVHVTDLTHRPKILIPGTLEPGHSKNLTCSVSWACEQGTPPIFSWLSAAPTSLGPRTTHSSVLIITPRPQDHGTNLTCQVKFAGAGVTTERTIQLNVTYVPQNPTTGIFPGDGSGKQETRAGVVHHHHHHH
Method: The binding affinity to human CD33 protein was measured by biolayer interferometry (BLI) using an Octet Red96e. All experiments were carried out using kinetic buffer (PBS pH 7.4, 0.01% BSA, 0.002% Tween-20). The antibodies were captured by an anti-huFc biosensor and a 7-point, 2-fold dilution series of huCD33-His was used as analyte. The data was processed by double reference subtraction, and response curves were globally fit to a 1:1 Langmuir binding model. […] The binding affinities are similar to the H195 reference antibody.

[4] = molecular target: T3, human CD33 extracellular domain with …; assay: BLI, huCD33-His on anti-penta-His sensor, no competitor
Method: Epitope Binning. Epitope binning was carried out by a BLI competition experiment using an Octet Red96e. Human CD33-His was captured by an anti-penta-His biosensor. A 4×4 matrix with TDI-Y-006, TDI-Y-007, 1J19 and H195 was tested. A reference biosensor was used to determine the overall capture level for each antibody. After pre-binding the antibodies at saturation levels, the biosensors were dipped into antibody solutions to assess competition. […] However, when TDI-Y-006 was pre-bound, binding of TDI-Y-007 was blocked. […] Similarly, 1J19 and H195 have epitopes that partially overlap. No competition was observed between antibodies binding to the membrane-proximal IgC2 domain (TDI-Y-006 and TDI-Y-007) and antibodies binding to the membrane-distal IgV domain (1J19 and H195).

[5] = molecular target: T2, human CD33, full length, on cells; assay: flow cytometry on 3T3 cells overexpressing human CD33, antibody titration, AlexaFluor 647 goat anti-human F(ab')2 detection, MFI ratio to secondary only
Method: as §1

[6] = molecular target: T3, human CD33 extracellular domain with …; assay: ELISA, hybridoma supernatant
[7] = molecular target: T2, human CD33, full length, on cells; assay: flow cytometry, purified mAb, U937 cells
[8] = molecular target: T1, mouse CD33 extracellular domain with …; assay: ELISA on recombinant moCD33-His, purified hybridoma subclone antibody, readout RLU; antibody concentration not given
[9] = molecular target: T4, human CD33 IgC2 domain only, on NIH-3T3 cells (human, UniProt P20138 140-364); assay: flow cytometry, hybridoma supernatant, 3T3-huCD33IgC2 cells
T4 construct: the whole entry is named here; also called 3T3-huCD33IgC2; 3T3 CD33-IgC2
T4 sequence (P20138 140-364 limits assumed): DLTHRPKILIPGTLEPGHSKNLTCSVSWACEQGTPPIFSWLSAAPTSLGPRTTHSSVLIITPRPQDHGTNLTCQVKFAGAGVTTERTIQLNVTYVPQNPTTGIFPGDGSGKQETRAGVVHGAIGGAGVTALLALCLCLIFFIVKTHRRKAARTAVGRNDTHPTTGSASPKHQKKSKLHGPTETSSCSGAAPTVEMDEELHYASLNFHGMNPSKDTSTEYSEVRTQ

[10] = molecular target: T2, human CD33, full length, on cells; assay: flow cytometry, hybridoma supernatant, U937 cells
[11] = molecular target: T2, human CD33, full length, on cells; assay: flow cytometry, hybridoma supernatant, 3T3-huCD33 cells
[12] = molecular target: T2, human CD33, full length, on cells; assay: flow cytometry, purified mAb, Set2 cells
[13] = molecular target: T4, human CD33 IgC2 domain only, on NIH-3T3 …; assay: flow cytometry, hybridoma supernatant, 3T3-huCD33IgC2 cells, MFI
[14] = molecular target: T5, human CD33 IgC2 type domain with 6xHis-tag (human, UniProt P20138 140-259); assay: ELISA, hybridoma supernatant, RLU
T5 construct: Produced at LakePharma; also called huCD33IgC2-His; CD33 IgC2-6xHis
T5 sequence (P20138 other isoform, or with tags, fused parts or gaps): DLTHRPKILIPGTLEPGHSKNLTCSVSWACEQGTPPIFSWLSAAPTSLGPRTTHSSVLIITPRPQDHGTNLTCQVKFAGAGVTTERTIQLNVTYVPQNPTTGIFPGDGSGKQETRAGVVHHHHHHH

[15] = molecular target: T5, human CD33 IgC2 type domain with …; assay: ELISA, hybridoma supernatant

Binder | EC50 [1] | EC50 [2] | Kd [3] | kon [3] | BLI total binding capacity (Reference Biosensor) [4] | EC50 (read off the curve) [5] | RLU [6] | EC50 [7] | binding result [8] | MFI [9] | MFI [10] | MFI [11] | EC50 [12] | binding result [13] | binding result [14] | RLU [15]
B1 | 2.16 nM | 6.54 nM | 1.1 nM | 266000 M⁻¹ s⁻¹ | 0.432 | ~4 nM | – | – | – | – | – | – | – | – | – | –
B2 | – | – | – | – | – | – | 484000 RLU | 2.5 nM | no binding | 391000 MFI | 188000 MFI | 1.32e+06 MFI | 2 nM | – | – | –
B3 | – | – | – | – | – | – | 117000 RLU | 0.6 nM | no binding | – | 558000 MFI | 1.98e+06 MFI | 0.4 nM | no binding (tested: A signal >100,000 was used as cut off) | no binding | –
B4 | – | – | – | – | – | – | 724000 RLU | 0.4 nM | no binding | – | 409000 MFI | 4.21e+06 MFI | 0.466 nM | no binding (tested: A signal >100,000 was used as cut off) | no binding | –
B5 | – | – | – | – | – | – | 251000 RLU | 11.9 nM | no binding | – | 351000 MFI | 3.56e+06 MFI | 24.2 nM | – | – | 20400 RLU
B6 | – | – | – | – | – | – | 41800 RLU | 1.07 nM | no binding | – | 456000 MFI | 4.08e+06 MFI | 1.4 nM | no binding (tested: A signal >100,000 was used as cut off) | no binding | –
B7 | – | – | – | – | – | – | 117000 RLU | 6.33 nM | no binding | – | 559000 MFI | 2.15e+06 MFI | 5 nM | – | no binding | –
B8 | – | – | – | – | – | – | 132000 RLU | 0.866 nM | no binding | – | 479000 MFI | 1.75e+06 MFI | 0.4 nM | – | – | 58900 RLU
B9 | – | – | – | – | – | – | 95600 RLU | 10.2 nM | – | – | 339000 MFI | 3.86e+06 MFI | 7.93 nM | no binding (tested: A signal >100,000 was used as cut off) | – | 15200 RLU
B10 | 0.4 nM | 4.8 nM | 1.22 nM | 358000 M⁻¹ s⁻¹ | 0.743 | – | – | – | – | – | – | – | – | – | – | –
